Molecular target: RPA (full-length heterotrimer) (Homo sapiens, UniProt P27694;P15927;P35244 1-616;1-270;1-121)
Experiment: fluorescence anisotropy; 1 mM MnCl2; Fluorescence anisotropy: nuclease buffer (composition and pH not in the material) with 1 mM MnCl2, RPA mixed 1:1 with 10 nM fluorescein-labelled DNA, 30 ul, room temperature, 10 min; sigmoidal fit
Conditions: protein: recombinant, copies: 1;1;1

Chain of RPA (full-length heterotrimer) (P27694 whole entry, chain 1 of 3): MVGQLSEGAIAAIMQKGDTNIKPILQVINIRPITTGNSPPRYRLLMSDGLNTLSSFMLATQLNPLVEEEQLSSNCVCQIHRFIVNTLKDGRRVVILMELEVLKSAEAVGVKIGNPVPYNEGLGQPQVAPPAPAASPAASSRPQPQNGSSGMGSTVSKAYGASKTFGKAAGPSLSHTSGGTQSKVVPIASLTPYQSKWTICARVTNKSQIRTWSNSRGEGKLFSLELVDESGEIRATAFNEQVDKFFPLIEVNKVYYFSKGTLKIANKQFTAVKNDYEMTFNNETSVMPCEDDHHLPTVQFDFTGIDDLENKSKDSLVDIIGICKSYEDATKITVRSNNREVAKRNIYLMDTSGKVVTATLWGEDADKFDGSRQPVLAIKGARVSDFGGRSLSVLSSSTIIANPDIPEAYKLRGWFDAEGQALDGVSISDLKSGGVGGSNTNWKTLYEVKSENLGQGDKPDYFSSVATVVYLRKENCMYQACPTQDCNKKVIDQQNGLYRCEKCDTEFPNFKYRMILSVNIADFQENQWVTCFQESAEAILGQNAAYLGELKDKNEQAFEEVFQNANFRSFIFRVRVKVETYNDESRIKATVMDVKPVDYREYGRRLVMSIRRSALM
Chain of RPA (full-length heterotrimer) (P15927 whole entry, chain 2 of 3): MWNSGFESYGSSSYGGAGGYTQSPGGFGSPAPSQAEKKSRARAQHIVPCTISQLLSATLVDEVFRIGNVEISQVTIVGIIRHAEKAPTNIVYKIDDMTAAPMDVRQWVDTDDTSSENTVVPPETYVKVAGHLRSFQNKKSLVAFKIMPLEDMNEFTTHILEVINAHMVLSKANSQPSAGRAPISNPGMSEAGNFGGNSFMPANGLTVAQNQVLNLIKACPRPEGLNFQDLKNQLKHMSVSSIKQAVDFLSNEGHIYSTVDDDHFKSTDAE
Chain of RPA (full-length heterotrimer) (P35244 whole entry, chain 3 of 3): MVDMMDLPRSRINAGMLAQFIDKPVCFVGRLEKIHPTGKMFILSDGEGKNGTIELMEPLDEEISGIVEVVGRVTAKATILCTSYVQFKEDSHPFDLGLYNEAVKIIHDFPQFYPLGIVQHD

Row | Binder | Kd (fork: 28 bp duplex, 22 nt 3' arm (strand 1) and 22 nt 5' arm (strand 2)) [nM] | Kd (fork 1:2 2:3, 28 bp parental duplex, 22 bp lagging arm, 22 nt 3'-ssDNA arm on strand 1) [nM]
1 | simple fork (mixed) DNA 1: ATAAATATTTTTTATTAATAATAGATCACCTTTCTTTCTCTTCTCCCCTT DNA 2: TTCCCCTCCTCTCCTTCCTTCCTGATCTATTATTAATAAAAAATATTTAT | 6.3 | –
2 | fork + lagging strand (mixed) DNA 1: ATAAATATTTTTTATTAATAATAGATCACCTTTCTTTCTCTTCTCCCCTT DNA 2: TTCCCCTCCTCTCCTTCCTTCCTGATCTATTATTAATAAAAAATATTTAT ?: GGAAGGAAGGAGAGGAGGGGAA | – | 6.2
